Data on 1 substance can be found in PMC7930613, “Exploring the Potential of Cytochrome P450 CYP109B1 Catalyzed Regio—and Stereoselective Steroid Hydroxylation” (Frontiers in Chemistry, 2021).

A word on the Km: it is the concentration of substrate that gives half-maximal velocity. The term kcat denotes the number of substrate molecules converted per active site and unit of time at saturation. The term kcat/Km denotes the turnover number divided by the Michaelis constant.

Assay in all cases: HPLC, steroid hydroxylation rate, hyperbolic fit
What all share (type): biochemical, Bacillus subtilis
What all share (conditions): 1 mM NADPH, redox partners Fdr_0978 (4 μM) and Fdx_1499 (20 μM), 2 mM MgCl2, pH 8.0, 30°C

Data set [1] relates to T1, C[C@]12CC[C@H]3[C@@H](CCC4=CC(=O)CC[C@@H]43)[C@@H]1CC[C@@H]2O.
T1 construct: assayed with separate redox partners Fdr_0978/Fdx_1499
The source says: (§1) HPLC, steroid hydroxylation rate, hyperbolic fit on CYP109B1

In data set [2] the test system is C[C@]12CC[C@H]3[C@@H](CCC4=CC(=O)C=C[C@@]43C)[C@@H]1CC[C@@H]2O.
Text: as §1

Data set [3] has as its system C[C@]12CC[C@H]3[C@@H](CCC4=CC(=O)CC[C@@]43C)[C@@H]1CC[C@@H]2O.
Text: as §1

Data set [4] concerns T2, [H][C@@]12CC[C@H](O)[C@@]1(C)CCC1=C3CCC(=O)C=C3CC[C@]12[H].
T2 construct: assayed with separate redox partners Fdr_0978/Fdx_1499
Text: as §1

In the case of “CYP109B1 (Bacillus subtilis subsp. subtilis str. 168)”, the Km was 136.3 ± 18.4 µM in data set [1], 193.1 ± 38.2 µM in data set [2], 83.7 ± 20.4 µM in data set [3] and 163.1 ± 38.4 µM in data set [4]. In addition, the kcat in data set [1] is 0.0717 ± 0.00167 s⁻¹; in data set [2], 0.0583 ± 0.00333 s⁻¹; in data set [3], 0.0783 ± 0.005 s⁻¹; in data set [4], 0.197 ± 0.0117 s⁻¹. The kcat/Km in data set [1] came out at 517 M⁻¹ s⁻¹; in data set [2], 300 M⁻¹ s⁻¹; in data set [3], 933 M⁻¹ s⁻¹; in data set [4], 1200 M⁻¹ s⁻¹.
